Assay results published in paper PMC11615384, “Frequent transitions in self-assembly across the evolution of a central metabolic enzyme” (Nature Communications, 2024).
Where “and” joins values, the source holds several entries; their conditions need not be identical. Identical values can stand only once.

Tests used:
[1] = molecular target: type II citrate synthase of C. woesi (C. woesi); assay: mass photometry; self-assembly of the purified protein in solution; final concentration 12.5 to 50 nM; PBS or 20 mM Tris, 200 mM NaCl pH 7.5; OneMP or TwoMP
[2] = molecular target: citrate synthase (type III CS) from M. sulfidovorans (M. sulfidovorans); assay: as above
[3] = molecular target: citrate synthase from M. sulfidovorans W150A (M. sulfidovorans); assay: as above
[4] = molecular target: CS from a Myxococcota species (a Myxococcota species); assay: as above
[5] = molecular target: non-mitochondrial citrate synthase (nmCS) of Chlamydomonas reinhardtii (Chlamydomonas reinhardtii); assay: as above
[6] = molecular target: type II citrate synthase of F. taffensis (F. taffensis); assay: as above
[7] = molecular target: non-mitochondrial citrate synthase (nmCS) of C. fasciculata (C. fasciculata); assay: as above
[8] = molecular target: T1, CS from A. comosus (nmCS) (Ananas comosus, UniProt A0A6P5F0R3); assay: mass photometry, oligomeric state shift; assay type: binding; conditions: 10 min preincubation with high acetyl-CoA; octamers shift to mix of hexamers and octamers
T1 construct: gene LOC109710921; non-mitochondrial CS with C-terminal LE-HHHHHH tag, expressed in E. coli BL21(DE3); octamer (ring of four dimers); C-terminus extends to residue 513
T1 sequence (A0A6P5F0R3 entry or part of it): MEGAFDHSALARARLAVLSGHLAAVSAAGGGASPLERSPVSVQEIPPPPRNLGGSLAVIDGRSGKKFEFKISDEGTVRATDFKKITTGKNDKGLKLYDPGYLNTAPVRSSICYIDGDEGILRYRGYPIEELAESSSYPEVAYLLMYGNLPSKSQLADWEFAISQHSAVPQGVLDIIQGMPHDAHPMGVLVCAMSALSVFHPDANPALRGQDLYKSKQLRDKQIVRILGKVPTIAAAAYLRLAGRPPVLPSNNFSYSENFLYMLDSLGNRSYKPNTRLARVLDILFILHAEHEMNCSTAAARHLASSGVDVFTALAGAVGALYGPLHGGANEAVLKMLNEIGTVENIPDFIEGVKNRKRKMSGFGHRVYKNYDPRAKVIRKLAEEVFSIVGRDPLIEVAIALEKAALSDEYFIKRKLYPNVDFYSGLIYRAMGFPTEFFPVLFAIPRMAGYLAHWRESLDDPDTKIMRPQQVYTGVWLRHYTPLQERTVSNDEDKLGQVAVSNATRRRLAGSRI

[9] = molecular target: non-mitochondrial citrate synthase (nmCS) of Ananas comosus (Ananas comosus); assay: mass photometry; self-assembly of the purified protein in solution; final concentration 12.5 to 50 nM; PBS or 20 mM Tris, 200 mM NaCl pH 7.5; OneMP or TwoMP
[10] = molecular target: non-mitochondrial citrate synthase (nmCS) of Ananas comosus (Ananas comosus); assay: mass photometry; with high quantities of acetyl-CoA: prediluted protein (2 µM) incubated for 10 min with the substrate, same concentration in the buffer of the gasket
purified protein [11] = substrate: O=C(O)CC(=O)C(=O)O; assay: purified protein; assay type: biochemical, Methylophaga sulfidovorans; conditions: 50 mM Tris pH 7.5, 10 mM KCl, 25 °C, 25 nM enzyme, varied substrate not named in main text
[12] = molecular target: the molecule itself; assay: mass photometry; self-assembly of the purified protein in solution; final concentration 12.5 to 50 nM; PBS or 20 mM Tris, 200 mM NaCl pH 7.5; OneMP or TwoMP
purified protein [13] = substrate: O=C(O)CC(=O)C(=O)O; assay: purified protein; assay type: biochemical, Deinococcus pimensis; conditions: 50 mM Tris pH 7.5, 10 mM KCl, 25 °C, 25 nM enzyme, unseparated sample, varied substrate not named in main text

Q: Which stoichiometry N [1] does the source give for “type II citrate synthase of C. woesi (enzyme)” here?
A: The stoichiometry N was 2.

Q: How did the stoichiometry N [2] turn out when “citrate synthase (type III CS) from M. sulfidovorans (enzyme)” was run?
A: Its stoichiometry N is 6.

Q: “citrate synthase from M. sulfidovorans W150A (enzyme)” was tested. Which stoichiometry N [3] did it give?
A: The stoichiometry N was 2.

Q: For CS from a Myxococcota species (enzyme), which stoichiometry N [4] is on record?
A: Its stoichiometry N is 2.

Q: For “non-mitochondrial citrate synthase (nmCS) of Chlamydomonas reinhardtii (enzyme)”, which stoichiometry N [5] is on record?
A: The stoichiometry N was 2.

Q: “type II citrate synthase of F. taffensis (enzyme)” was tested. Which stoichiometry N [6] did it give?
A: Its stoichiometry N is 2.

Q: Which stoichiometry N [7] does the source give for “non-mitochondrial citrate synthase (nmCS) of C. fasciculata (enzyme)” here?
A: The stoichiometry N was 6.

Q: For `CC(=O)SCCNC(=O)CCNC(=O)[C@H](O)C(C)(C)COP(=O)(O)OP(=O)(O)OC[C@H]1O[C@@H](n2cnc3c(N)ncnc32)[C@H](O)[C@@H]1OP(=O)(O)O` [acetyl-CoA], which “mass photometry, oligomeric state shift” value [8] is on record?
A: Its value is “shift the oligomeric state of the CS from A. comosus from octamers”.

Q: How did the stoichiometry N [9] turn out when “non-mitochondrial citrate synthase (nmCS) of Ananas comosus (enzyme)” was run?
A: The stoichiometry N was 8.

Q: What about the stoichiometry N [10] of the same molecule?
A: Its stoichiometry N is 6 and 8.

B1: CS from M. sulfidovorans (type III) (Methylophaga sulfidovorans) (protein)
chain: MSDFLPGLEGVPATKSAISFIDGEKGILSYRGYPLETLAENSTFEETTLLLLDGELPTKKALNDFSQQLKDNYRIKYHIRQMMRHFPHTGHPMDMLQTAVSSLGMFYPGTECLTDANSCEDLDYVRNMTVNIIAQMAPLVAMWEHIRNGWDPVNPKHDLSVAENLLYMFNGEEPDPLMAKIMDVCLILHAEHTLNASTFAALVAGSTLATPYSVISAAIGTLSGPLHGGANQRVVGMLQEIGSPKNVESWVDEKLKNKEVIWGMGHREYKVKDPRATILHKLVEQLVAERGGHLDDMFDTALKLEEVCADRLGHKGVYPNVDFYSGILYSEMGIPEDEFTALFAVARSAGWLAHWREQISDNRIYRPTQIYVGSDMRDYTPIEER
notes: full-length with C-terminal LE-HHHHHH tag, expressed in E. coli BL21(DE3); type III CS, hexamer (three dimers)
Q: For B1, which Km (purified protein [11]) is on record?
A: The Km was 50.5 ± 5.2 µM.

Q: What about the kcat (purified protein [11]) of the same molecule?
A: The kcat was 33.3 ± 1.8 s⁻¹.

B2: CS from M. sulfidovorans (type III) (Methylophaga sulfidovorans; W150A) (protein)
chain: MSDFLPGLEGVPATKSAISFIDGEKGILSYRGYPLETLAENSTFEETTLLLLDGELPTKKALNDFSQQLKDNYRIKYHIRQMMRHFPHTGHPMDMLQTAVSSLGMFYPGTECLTDANSCEDLDYVRNMTVNIIAQMAPLVAMWEHIRNGADPVNPKHDLSVAENLLYMFNGEEPDPLMAKIMDVCLILHAEHTLNASTFAALVAGSTLATPYSVISAAIGTLSGPLHGGANQRVVGMLQEIGSPKNVESWVDEKLKNKEVIWGMGHREYKVKDPRATILHKLVEQLVAERGGHLDDMFDTALKLEEVCADRLGHKGVYPNVDFYSGILYSEMGIPEDEFTALFAVARSAGWLAHWREQISDNRIYRPTQIYVGSDMRDYTPIEER
notes: as for B1
Q: B2 was tested. Which Km (purified protein [11]; dimeric variant) did it give?
A: The Km was 36.7 ± 5.7 µM.

Q: And the kcat (purified protein [11]; dimeric variant)?
A: The kcat was 26.7 ± 1.1 s⁻¹.

B3: non-mitochondrial citrate synthase (nmCS) of P. olsenii (enzyme)
chain: MDRLNTVAAHVAPTLTITDNRSGKKIDVKVKDGTIRATDLKQLGIQTYDPGYMNTTCCVSRISFIDGNRGVLRYRGYPIEQLAQDSSFTEVAFLLQYGELPTRGQLTQWEQDLMRHSMLHQDVATLTSAFRYDAHPMGMFVSAMAALGTLHPETNPALTSQNIYKDKAVRNKEIARILGSATTLAAMAYRHRMGRPFNTPNSDLGYTENFLYMLDVSHEGTSYRPHPKLVKALDVLFVLHAEHELNCSTSAMRHLTSSNVDVYTACAAAAGALYGPRHGGANEAVLRMLERIGSIENVPTFVDKVKQRKELLMGFGHRVYKHYDPRATIVRKIAEDVFEICGREPLIEVAMDLERIALSDPYFKDRKLYPNVDFYSGLIYKAMGFPTDMFPILFTVPRLAGWLAHWSEWIDDPENRIYRPFQVYKGYDKRDYVQVDERSEKVHSKELTVKRSAFNRRRDASLQSAAADRSEYEWIKD
Q: For B3, which “stoichiometry N” value [12] is on record?
A: The value was 6.

B4: A. comosus CS Δ487-513, variant in which the extended C-terminus was deleted (domain or fragment)
chain: MEGAFDHSALARARLAVLSGHLAAVSAAGGGASPLERSPVSVQEIPPPPRNLGGSLAVIDGRSGKKFEFKISDEGTVRATDFKKITTGKNDKGLKLYDPGYLNTAPVRSSICYIDGDEGILRYRGYPIEELAESSSYPEVAYLLMYGNLPSKSQLADWEFAISQHSAVPQGVLDIIQGMPHDAHPMGVLVCAMSALSVFHPDANPALRGQDLYKSKQLRDKQIVRILGKVPTIAAAAYLRLAGRPPVLPSNNFSYSENFLYMLDSLGNRSYKPNTRLARVLDILFILHAEHEMNCSTAAARHLASSGVDVFTALAGAVGALYGPLHGGANEAVLKMLNEIGTVENIPDFIEGVKNRKRKMSGFGHRVYKNYDPRAKVIRKLAEEVFSIVGRDPLIEVAIALEKAALSDEYFIKRKLYPNVDFYSGLIYRAMGFPTEFFPVLFAIPRMAGYLAHWRESLDDPDTKIMRPQQVYTGVWLRHYTPLQERLEHHHHHH
Q: With B4 as the molecule, how does the “stoichiometry N” value [12] read?
A: Its value is 2.

B5: CS from D. pimensis (Dp) (Deinococcus pimensis) (protein)
chain: MTTTIAKGLEGVLFTETKLTFINGTEGVLTHLGIPIQEWAEKSTFEELSFALLHGKLPTREELAAFDADLKANRAVPAELITAIRAYPRDVHPMQALRTAASHLGLLDADAEDTSAEGRYRIGVRMIAQFSTIIAAIARAQDGQDPVEPRADLTHAGNFLYMLNGQEPSAEQARLFDIALILHADHGMNASTFTAIATASTLSDMYSSVVSAIGALKGPLHGGANEAVMDMLDEIGTVDAAVPFITQKLDNKEKIMGVGHRVYKYFDPRSRVLRDYAAHVSEKQGKSHYYSILETIEKEIVERLGGKGIYPNVDFYSGVVYSDLGIKKSFFTPIFALARISGWVASVTEYTANNRLLRPDAVYVGARDQHYVEIDERK
notes: full-length with C-terminal LE-HHHHHH tag, expressed in E. coli BL21(DE3); type I CS, polydisperse oligomer (dimers to >=8 subunits)
Q: Which Km (purified protein [13]) does the source give for B5 here?
A: The Km was 25.4 ± 3.1 µM.

Q: What about the kcat (purified protein [13]) of the same molecule?
A: The kcat was 36.6 ± 1.1 s⁻¹.
